Assay results taken from patent US20120165244A1, “METHODS FOR BINDING LEWIS Y ANTIGEN” (priority 2008, published 2012).

Key:
binding of CD14 to LPS = target: T1, binding of CD14 to LPS (Homo sapiens, UniProt P08571); experiment: Blockage of the binding of CD14 to LPS; conditions: FIG. 4D
T1 construct: purchased R&D Systems
T1 sequence (P08571 20-352 limits assumed): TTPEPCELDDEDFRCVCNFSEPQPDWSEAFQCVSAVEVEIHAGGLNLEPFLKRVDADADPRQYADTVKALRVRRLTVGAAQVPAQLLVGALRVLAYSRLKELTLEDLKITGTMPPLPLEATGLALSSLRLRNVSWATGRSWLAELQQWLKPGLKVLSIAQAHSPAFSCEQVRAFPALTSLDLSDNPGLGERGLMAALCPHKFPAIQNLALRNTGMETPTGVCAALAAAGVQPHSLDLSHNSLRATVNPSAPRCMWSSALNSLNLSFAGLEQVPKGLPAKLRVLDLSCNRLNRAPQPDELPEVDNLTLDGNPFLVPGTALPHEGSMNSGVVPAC
Description: (§1) K. pneumoniae (3×10^5 CFU/well), E. coli O111:B4 smooth-type LPS (5 μg/well), or bovine serum albumin (BSA, 5 μg/well) in 100 μL of bicarbonate buffer (pH 9.6) were coated onto wells of high-binding microtiter plate (Corning Costar, Cambridge, Mass.). Nonspecific binding was blocked with binding buffer (20 mM Tris-HCl, pH 7.4, 0.15 M NaCl, 5 mM CaCl2) containing 50 mg/mL BSA. Various concentrations of rTMD proteins without or with CD14 (10 μg/mL; R&D Systems) in binding buffer containing 1 mg/mL BSA were added to wells and incubated for 2 hours. In some experiments, 0.2 M mannose, 5 mM EDTA, or Le^y were included in the binding buffer to compete with LPS and rTMD1 binding. Antibody against the c-Myc epitope of the rTMD proteins was added to wells and incubated for 2 hours, and peroxidase-labeled secondary antibody followed. Binding of rTMD proteins was detected by measuring absorbance at 450 nm.

[1] = Clearance of LPS in circulation (Limulus amebocyte lysate test); type: in vivo; conditions: LPS 20 mg/kg i.p.; rTMD1 10 mg/kg i.v.
Description: Male FVB mice (8-10 weeks old) were used to model sepsis in vivo. The Institutional Animal Care and Use Committee of the National Cheng Kung University approved procedures. In the chronic endotoxemia model, various concentrations of rTMD1 or rTMD proteins in equi-molar amounts were administrated by tail intravenous (i.v.) injection and LPS (20 mg/kg) or K. pneumoniae (5×10^2 CFU/mouse, BCRC) was administrated by intraperitoneal (i.p.) injection. After 6 or 12 hours, mice were sacrificed by pentobarbital anesthesia (50 mg/kg; i.p.). […] The half-life of rTMD1 in the circulation was determined by i.v. injection of rTMD1 (10 mg/kg, equals 436.64 nmole/kg) and serum samples were collected at various time intervals. The levels of rTMD1 in the collected sera were determined by a sandwich ELISA which employed anti-c-Myc monoclonal antibody and TM-H300 as capture and detection antibodies (both from Santa Cruz Biotechnology), respectively. […] Mortality was monitored every 6-12 hours until all mice in either experimental group died. […] Serum samples were collected at various time intervals and the amount of LPS was determined by Limulus amebocyte lysate test (Associates of Cape Cod, E. Falmouth, Mass.). […] Outgrowth of K. pneumoniae was quantified by plating serial dilutions of blood samples on blood agar plates and enumerating colonies after overnight incubation at 37° C.

[2] = target: T2, binding of LPS binding protein to LPS (Homo sapiens, UniProt P18428); experiment: Binding of LPS binding protein to LPS; conditions: data not shown
T2 sequence (P18428 26-481): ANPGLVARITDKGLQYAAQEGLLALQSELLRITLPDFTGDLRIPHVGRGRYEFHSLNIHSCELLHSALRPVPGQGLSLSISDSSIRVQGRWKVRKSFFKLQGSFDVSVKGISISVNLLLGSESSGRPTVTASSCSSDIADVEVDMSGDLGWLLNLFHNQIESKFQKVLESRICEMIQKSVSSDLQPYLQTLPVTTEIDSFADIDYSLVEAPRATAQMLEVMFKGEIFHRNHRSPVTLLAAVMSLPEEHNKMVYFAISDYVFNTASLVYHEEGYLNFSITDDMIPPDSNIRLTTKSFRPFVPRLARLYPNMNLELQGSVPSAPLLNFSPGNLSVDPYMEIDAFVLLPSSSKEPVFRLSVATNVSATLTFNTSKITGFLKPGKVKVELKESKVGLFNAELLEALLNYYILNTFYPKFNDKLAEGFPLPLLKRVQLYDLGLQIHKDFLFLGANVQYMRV

RAW 264.7 cells = experiment: LPS-induced NO production in RAW 264.7 cells (Griess reagent); type: cell-based, murine; conditions: pre-incubated with LPS, 6 hours incubation (FIG. 1B)
Description: Human leukemia monocytic THP-1 cells and murine macrophage cell line RAW 264.7 were obtained from the American Type Culture Collection. THP-1 cells were grown in suspension in RPMI-1640 supplemented with 10 mM HEPES, 1 mM sodium pyruvate, 0.1% β-mercaptoethanol, 100 U/ml penicillin, 100 µg/ml streptomycin, and 10% fetal bovine serum (FBS). RAW 264.7 cells were grown as an adhered layer in Dulbecco's modified Eagle's medium with 4 mM L-glutamine adjusted to contain 1.5 g/l sodium bicarbonate and 4.5 g/l glucose, 100 U/ml penicillin, […] streptomycin, and 10% FBS under a humidified 5% CO2 atmosphere at 37° C. For differentiation, THP-1 cells were plated in medium containing 10 nM PMA and allowed to adhere for 18 h.
TNF-α in conditioned medium or mouse serum was measured by an enzyme-linked immunosorbent assay (ELISA) (R&D Systems, Minneapolis, Minn.). Accumulation of nitrite in the medium or mouse serum was determined by a colorimetric assay using Griess reagent (Sigma-Aldrich). Blood urea nitrogen (BUN) and creatinine were measured with a Roche D&P modular (Roche Diagnostic Systems, Branchburg, N.J.). Assays were performed according to the manufacturer's protocol.

K. pneumoniae = K. pneumoniae binding assay (coated wells); conditions: FIG. 4A
Description: as §1

B1: rTMD1: recombinant human thrombomodulin N-terminal lectin-like domain (residues Ala1-Ala155) with 6×His tag and c-Myc epitope, Pichia pastoris expressed (protein)
chain: EFAPAEPQPGGSQCVEHDCFALYPGPATFLNASQICDGLRGHLMTVRSSVAADVISLLLNGDGGVGRRRLWIGLQLPPGCGDPKRLGPLRGFQWVTGDNNTSYSRWARLDLNGAPLCGPLCVAVSAAEATVPSEPIWEEQQCEVKADGFLCEFHFPAYLEDDDDKIEQKLISEEDLNSAVDHHHHHH
modifications: left off: small tags and cut ends
binding of CD14 to LPS (binding of CD14 to LPS): inhibited
LPS clearance [1]: significantly enhanced
binding of LPS binding protein to LPS [2]: not inhibited
NO production in RAW 264.7 cells (RAW 264.7 cells): effectively inhibit
binding to K. pneumoniae (K. pneumoniae): specifically bind
